Test results from publication PMC2148182 (The Journal of Cell Biology, 1998).
Like-named read-outs stand apart in the source and are kept apart here.

Assays:
yeast actin monomers [1] = target: T1, yeast actin monomers (yeast (S. cerevisiae), UniProt P60010 1-375); test: co-sedimentation
yeast actin monomers [2] = target: T1, yeast actin monomers; test: co-sedimentation; remark: listed apart in the source

B1: full-length twinfilin (yeast, recombinant) (natural protein)
chain: MATQSGIVAEQALLHSLNENLSADGIVIIIAKISPDSTSVHQTQVARSFEELVQLASQEREPLYIFYKPEGLDKYFFVSFIPDGSPVRSRMLYASTKNTLARQVGSNSLSTEQPLITDAQDLVDLKNFDSARPAGQNKPLTHDEEMQIEINKQQALLRKNTSVKLVSQDSASPLSLTFRVNSEKPINEILDSEGKNLIIFQIDPSNETIQIVQSDTCPSVDELYIDLPGPSYTIFRQGDSSFFIYSCPSGSKVKDRMIYASNKNGFINYLKNDQKIAFSKVVEIGDFVELDKSLLMATNKEDSLDHGSNPDLPNKSNLKFNKPKGPLRKRRT
B1 was tested, and the “stoichiometry N” value (yeast actin monomers [1]) was 1 twinfilin:actin and the “stoichiometry N” value (yeast actin monomers [2]) was ~1 twinfilin:actin.
